Paper PMC5794975, “Mapping the interaction site and effect of the Siglec-9 inflammatory biomarker on human primary amine oxidase” (Scientific Reports, 2018)
Bridges are numbered along the chain shown (N, C = ends). Where no end group is shown, it is not given here.

T1: Human primary amine oxidase (hAOC3), recombinant (human, UniProt Q16853 1-763, topaquinone (TPQ; 2,4,5-trihydroxyphenylalanine quinone, a post-translationally modified tyrosine); N-glycans at Asn137, Asn232, Asn294, Asn592, Asn618, Asn666)
T1 sequence (looked up): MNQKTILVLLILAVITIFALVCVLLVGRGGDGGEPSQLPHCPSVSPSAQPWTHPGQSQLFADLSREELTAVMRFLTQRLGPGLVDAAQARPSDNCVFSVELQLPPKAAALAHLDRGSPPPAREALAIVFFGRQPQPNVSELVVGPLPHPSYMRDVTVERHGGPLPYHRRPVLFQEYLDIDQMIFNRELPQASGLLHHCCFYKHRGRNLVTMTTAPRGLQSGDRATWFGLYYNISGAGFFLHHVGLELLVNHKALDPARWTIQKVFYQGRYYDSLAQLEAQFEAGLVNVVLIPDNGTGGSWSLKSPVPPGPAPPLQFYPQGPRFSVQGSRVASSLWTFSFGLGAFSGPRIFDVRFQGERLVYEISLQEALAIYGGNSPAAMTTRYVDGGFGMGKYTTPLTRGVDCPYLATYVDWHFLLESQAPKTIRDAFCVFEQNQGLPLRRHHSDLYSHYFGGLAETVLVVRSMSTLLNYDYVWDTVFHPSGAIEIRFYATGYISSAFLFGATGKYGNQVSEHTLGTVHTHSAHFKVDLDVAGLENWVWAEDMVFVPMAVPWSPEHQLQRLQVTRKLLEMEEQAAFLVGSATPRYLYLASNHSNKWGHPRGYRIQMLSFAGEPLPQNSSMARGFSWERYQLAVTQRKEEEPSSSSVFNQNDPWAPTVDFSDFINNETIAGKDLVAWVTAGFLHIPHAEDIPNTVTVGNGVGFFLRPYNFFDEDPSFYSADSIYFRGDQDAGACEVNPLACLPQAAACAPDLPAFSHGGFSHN


Molecular target: T1, Human primary amine oxidase (hAOC3), …
Experiment: cell-based or functional assay

| activity of hAOC3-expressing CHO cells towards [7-14C]benzylamine with 5 µM peptide, percent of the control without peptide [%] | Binder |
| --- | --- |
| 127 | CARLSLSWRGLTLCPSK (disulfide 1-14) [cyclic Siglec-9 peptide (CARLSLSWRGLTLCPSK)] |
| 139 | CAALSLSWRGLTLCPSK (disulfide 1-14) [R3A Siglec-9 peptide (CAALSLSWRGLTLCPSK)] |
| 126 | CARLSLSWAGLTLCPSK (disulfide 1-14) [R9A Siglec-9 peptide (CARLSLSWAGLTLCPSK)] |
| 158 | CAALSLSWAGLTLCPSK (disulfide 1-14) [R3A/R9A Siglec-9 peptide (CAALSLSWAGLTLCPSK)] |
